Target: T1, HLA-A*01:01 (human)
T1 construct: MHC class I monomer first loaded with a UV-sensitive peptide (not identified) that is cleaved by UV irradiation and exchanged for the tested peptide; captured on streptavidin plates, detected with anti-β2m; also called peptide-receptive MHC molecules
Test: UV-ligand exchange, anti-b2m ELISA
Outline: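 Peptide–MHC complexes made by UV-ligand exchange of a UV-cleavable peptide; exchange yield measured by ELISA on streptavidin-coated plates, samples diluted 100-fold, 1 h 37 °C. Detection with 2 ug/ml HRP anti-β2m, TMB, A450; refolded HLA-A*02:01/MLA-001 monomer standards 15-500 ng/ml.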

RFDDINQEF
peptide exchange yield: 10 to 20%

ESAATGQLDY
peptide exchange yield: 50 to 75%

YEPATMEQY
peptide exchange yield: 20 to 50%

YMSPDIALLY
peptide exchange yield: > 75%

FTAEEGQLY
peptide exchange yield: 50 to 75%

NSAINPLIY
peptide exchange yield: > 75%

VACGNNPVY
peptide exchange yield: 50 to 75%

ITVDVRDEF
peptide exchange yield: 10 to 20%

ASSLDSLHY
peptide exchange yield: > 75%

MADRGEARL
peptide exchange yield: 20 to 50%

WSDGVPLLY
peptide exchange yield: > 75%

FHADSDDESF
peptide exchange yield: 10 to 20%

ETSFSTSHY
peptide exchange yield: > 75%

FSEPFHLIVSY
peptide exchange yield: > 75%

IPSFNEMVY
peptide exchange yield: 20 to 50%

YYYDTHTNTY
peptide exchange yield: 10 to 20%

SADHPGLTF
peptide exchange yield: 20 to 50%

YADPSANRDLL
peptide exchange yield: 20 to 50%

SSWSAGENDSY
peptide exchange yield: 50 to 75%

NSENHILKY
peptide exchange yield: > 75%

VLDPMLDFY
peptide exchange yield: > 75%

DSTDGCLLSF
peptide exchange yield: 20 to 50%

RLNGSVASY
peptide exchange yield: 20 to 50%

MTSTEQSLY
peptide exchange yield: 50 to 75%

AVNALQSVY
peptide exchange yield: 20 to 50%

DTGYLQLYY
peptide exchange yield: > 75%

QVWGGQPVY
peptide exchange yield: 10 to 20%

EIIRYIFAY
peptide exchange yield: 20 to 50%

LPDPNVQKY
peptide exchange yield: 20 to 50%

LTDTGYLQLY
peptide exchange yield: > 75%

NLDPNKIY
peptide exchange yield: 10 to 20%

SGALDEAAAY
peptide exchange yield: 20 to 50%

GSNPARYEF
peptide exchange yield: 20 to 50%

QVPLDCVLY
peptide exchange yield: 20 to 50%

RSDPGGGGLAYAAY
peptide exchange yield: > 75%

RIEAIRAEY
peptide exchange yield: 20 to 50%

TSDQLGYSY
peptide exchange yield: 50 to 75%

SANALILTY
peptide exchange yield: 20 to 50%

ASDVDTLLK
peptide exchange yield: 50 to 75%

NSALNPLLY
peptide exchange yield: > 75%

RLSTIRHLY
peptide exchange yield: 50 to 75%

LTDRDVSFY
peptide exchange yield: > 75%

NKEINYFMY
peptide exchange yield: 50 to 75%

KSWSQSSSLMY
peptide exchange yield: 50 to 75%

NTMDAVPRIDHY
peptide exchange yield: > 75%

VAGLEAGVLY
peptide exchange yield: 20 to 50%

RFRSITQSYY
peptide exchange yield: 10 to 20%

MTSTEQSLYY
peptide exchange yield: 50 to 75%

TQHFVQENY
peptide exchange yield: 20 to 50%

HSDLLEDSKY
peptide exchange yield: 50 to 75%

YPVVVAESMY
peptide exchange yield: 20 to 50%

SRSDFEWVY
peptide exchange yield: 20 to 50%

SWSAGENDSYS
peptide exchange yield: 10 to 20%

MSPDIALLYL
peptide exchange yield: 50 to 75%

TAKAPSTEY
peptide exchange yield: 20 to 50%

FVDTKVPEH
peptide exchange yield: 20 to 50%

WSQSSSLMY
peptide exchange yield: > 75%

YFGNYFTYY
peptide exchange yield: 10 to 20%

ILKGGSGTY
peptide exchange yield: 20 to 50%

PPDHAVGRTKY
peptide exchange yield: 20 to 50%

WSDSTSQTIY
peptide exchange yield: > 75%

YYDLVESTF
peptide exchange yield: 10 to 20%

QTYMDGLLHY
peptide exchange yield: > 75%

YTAHVGYSMY
peptide exchange yield: > 75%

FTTQDELLVY
peptide exchange yield: 50 to 75%

AVMEAAFVY
peptide exchange yield: 50 to 75%

EDDEDEDLY
peptide exchange yield: 50 to 75%

LMEKEDYHSLY
peptide exchange yield: 50 to 75%

LTDPQVSYV
peptide exchange yield: 50 to 75%

ETEPERHLGSY
peptide exchange yield: 50 to 75%

HLLSVSLYY
peptide exchange yield: 10 to 20%

SLIIDDTEY
peptide exchange yield: 20 to 50%
